Results on one substance are retold here after PMC10195879.

Read-outs that look alike come from different tables or passages of the source.

Assay [1] has as its target GMPCPP-stabilized microtubules (bovine brain tubulin, TAMRA-labeled) (bovine) (UniProt Q6B856). Description: single-molecule TIRF microscopy.
The target is the same in assay [2]. The experiment in a line: single-molecule TIRF microscopy. This is another data set of the same source.

Chain of His-EGFP-L-TOG2-S (minimal construct of CLASP2α: short linker region, TOG2 domain and serine-arginine-rich region) (domain or fragment) (O75122 whole entry, the tested form may be a part): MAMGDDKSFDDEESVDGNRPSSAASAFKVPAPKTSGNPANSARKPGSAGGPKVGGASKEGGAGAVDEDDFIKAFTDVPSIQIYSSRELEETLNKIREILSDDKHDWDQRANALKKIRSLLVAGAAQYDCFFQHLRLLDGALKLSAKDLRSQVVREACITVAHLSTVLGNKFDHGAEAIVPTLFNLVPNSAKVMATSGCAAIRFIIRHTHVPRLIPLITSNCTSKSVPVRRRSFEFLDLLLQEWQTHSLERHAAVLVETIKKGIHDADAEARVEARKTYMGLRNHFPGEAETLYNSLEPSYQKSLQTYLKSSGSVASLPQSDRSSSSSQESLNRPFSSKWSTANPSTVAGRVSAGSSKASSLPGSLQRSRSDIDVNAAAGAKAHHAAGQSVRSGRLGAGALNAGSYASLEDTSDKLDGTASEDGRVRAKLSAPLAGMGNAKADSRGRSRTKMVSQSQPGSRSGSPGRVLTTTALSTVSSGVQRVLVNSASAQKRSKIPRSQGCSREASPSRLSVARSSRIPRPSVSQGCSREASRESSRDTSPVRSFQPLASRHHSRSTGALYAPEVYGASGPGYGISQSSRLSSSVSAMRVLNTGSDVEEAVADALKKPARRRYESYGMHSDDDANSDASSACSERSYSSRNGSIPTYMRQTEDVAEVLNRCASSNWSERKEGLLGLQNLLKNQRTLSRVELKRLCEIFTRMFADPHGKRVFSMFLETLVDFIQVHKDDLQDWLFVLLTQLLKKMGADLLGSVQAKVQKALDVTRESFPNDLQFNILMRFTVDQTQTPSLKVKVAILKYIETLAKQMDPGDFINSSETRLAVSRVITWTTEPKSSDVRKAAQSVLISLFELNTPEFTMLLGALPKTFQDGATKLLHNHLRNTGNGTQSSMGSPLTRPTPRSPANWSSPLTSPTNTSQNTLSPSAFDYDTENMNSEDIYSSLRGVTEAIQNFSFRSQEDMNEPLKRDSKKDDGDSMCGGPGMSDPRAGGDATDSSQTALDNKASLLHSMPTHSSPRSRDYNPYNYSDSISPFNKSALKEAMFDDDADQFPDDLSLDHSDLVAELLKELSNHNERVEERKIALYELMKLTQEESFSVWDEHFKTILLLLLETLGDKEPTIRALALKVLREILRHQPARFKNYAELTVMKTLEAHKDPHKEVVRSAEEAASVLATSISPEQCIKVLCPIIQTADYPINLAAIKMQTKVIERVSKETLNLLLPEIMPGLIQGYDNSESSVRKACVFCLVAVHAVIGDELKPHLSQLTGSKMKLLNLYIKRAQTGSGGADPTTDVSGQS

In the case of “His-EGFP-L-TOG2-S (minimal construct of CLASP2α: short linker region, TOG2 domain and serine-arginine-rich region) (domain or fragment)”, the figures for the mean dwell time on microtubule ends in assay [1] and in assay [2] were 3.8 s and 0.53 s, respectively.
